Earlier results on one substance are cited in article PMC8384639.

This series addresses Histone H3 K4me3 peptide 1-15 (Homo sapiens) (UniProt P68431).

For the substance BPTF PHD (from UniProt Q12830), the Kd is 2700 nM.

For orientation: Kd means the equilibrium constant for the complex coming apart.
